Bridges are numbered along the chain shown (N, C = ends). Where no end group is shown, it is not given here.
How the values were obtained:
[1] = molecular target: T1, β-AP (1-28) (Homo sapiens, UniProt P05067); assay: Inhibition of the aggregation and fibril formation of β-AP (1-28) by cβ-AP128, tested by CD and EM; type: biochemical; settings: 450 μM β-AP (1-28) and cβ-AP128, 10 mM phosphate buffer, 150 mM NaCl, 30% acetonitrile, pH 5.5
T1 construct: made in house; host or cells: chemical solid-phase peptide synthesis (Boc/Bzl on PAM resin), no expression host
Experimental: (§1) The effect of cβ-AP128 (SEQ ID NO: 20) on the aggregation and fibril formation of β-AP (1-28) was tested by CD and EM. A solution of 450 μM β-AP (1-28) (SEQ ID NO: […]) and cβ-AP128 (SEQ ID NO: […]) in 10 mM phosphate buffer, 150 mM NaCl and 30% acetonitrile, pH 5.5, was incubated for several days and tested for fibril formation by EM (FIGS. 2A and 2B).

[2] = FT-IR of aged peptide solutions/suspensions (β-pleated sheet conformation); type: physicochemical; settings: 450 μM solutions/suspensions, 10 mM phosphate buffer, 150 mM NaCl, 30% acetonitrile, pH 5.5
Experimental: (§2) The physicochemical properties of cβ-AP were investigated by FT-IR (Fourier-transform infrared spectrometry) and CD (circular dichroism spectropolarimetry). EM (electron microscopy) and AFM (atomic force microscopy) were used to test the properties of fibrils of cβ-AP128. In the EM studies, 450 μM solutions of cβ-AP128 or β-AP (1-28) (SEQ ID NO: 2) or [Lys^17, Asp^21] β-AP(1-28) (SEQ ID NO: 5) in 10 mM phosphate buffer, 150 mM NaCl and 30% acetonitrile, pH 5.5 were initially incubated for several days and tested for fibril formation.

[3] = Testing of fibril formation by electron microscopy (EM); type: physicochemical; settings: 450 μM solution in 10 mM phosphate buffer, 150 mM NaCl, 30% acetonitrile, pH 5.5; for fibril formation (EM): after three days incubation
Experimental: as §2

[4] = CD of peptide alone (β-pleated sheet formation and precipitation); type: physicochemical; settings: 10 mM phosphate buffer, 150 mM NaCl, 30% acetonitrile, pH 5.5
Experimental: as §1

T1 sequence (P05067 672-699 limits assumed): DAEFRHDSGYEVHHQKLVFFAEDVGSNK

time without changes of the CD spectra of the mixture with β-AP (1-28) [1] | Substance | conformation by FT-IR after aging [2] | incubation time over which no fibrils were formed (EM) [3] | fibril formation (EM) [3] | fate after β-pleated sheet formation [4]
more than 1 month | cyclo^17,21 [Lys^17, Asp^21] β-AP (1 to 28) (DAEFRHDSGYEVHHQKKVFFDEDVGSNK; lactam 17-21; listed as Homo sapiens) [cβ-AP128, β-AP (1-28) derivative with lactam bridge between side chains of Lys17 and Asp21] | prevents the β-pleated sheet conformation | more than 30 days |  | 
 | [Lys^17, Asp^21] β-AP (1-28) | β-pleated sheet conformation |  | completely fibrillated | precipitated out as insoluble amyloid
 | β-AP (1-28) | β-pleated sheet conformation |  | completely fibrillated | precipitated out as insoluble amyloid

From patent US7342091B2, “Soluble cyclic analogues of β amyloid peptide” (Fraunhofer-Gesellschaf zur Forderung der angewandten …, priority 2001, dated 2008)
